Here are results for one substance from patent US20080182332.

Common to all, as to assay: cell_activity
The subject of data set [1] is IL-1-FokI C3H F4 HTKRCGGG (pDAB4343) F4 zinc coordinating region HTKRCGGG (engineered). The note with it: pDAB4343, tobacco BY2-380.
For data set [2], the system named is IL-1-FokI C3H F2 HIRTGC (pDAB4346/pDAB4356) F2 zinc coordinating region HIRTGC (engineered). The note with it: pDAB4346, tobacco BY2-380 intrachromosomal recombination; pDAB4356 also active in interchromosomal HR.
Data set [3] concerns IL-1-FokI C3H F4 HTKIC (pDAB4342) F4 zinc coordinating region HTKIC (engineered). The note with it: pDAB4342, tobacco BY2-380.
Data set [4] has as its system IL-1-FokI C2H2 (pDAB4341/pDAB4323) (engineered). The following applies: pDAB4341, tobacco BY2-380; pDAB4323 (non-plant codon FokI) 5.53.
Data set [5] relates to IL-1-FokI C3H F4 HAQRCG (pDAB4344) F4 zinc coordinating region HAQRCG (engineered). The note with it: pDAB4344, tobacco BY2-380.

Regarding IL-1-L0-FokI site, 4 tandem repeats, the activity (GFP expression) came to 7.57 in data set [1]; 9.5 in data set [2]; 0.25 in data set [3]; 6.37 in data set [4]; 4.39 in data set [5].
